How the values were obtained:
PTB RRM1 P142G = PTB RRM1 P142G (human, UniProt P26599-1 41-163, P142G); assay: NMR; alpha3 helicity increases on binding; ITC (30 C) and NMR (40 C): 20 mM NaCl, 10 mM NaH2PO4 pH 6.5. EMSA: 20 mM NaH2PO4 pH 7.2, 100 mM NaCl, 5 mM MgCl2, 5% glycerol, 1 mM DTT, 50 ug/ml yeast tRNA, 40 ug/ml BSA, room temperature; settings: protein: recombinant; tags: intein tag removed; label: 13C/15N in some NMR samples; hairpin, 5-nt loop UCUUU (positions 10-14)
PTB RRM1 L151G = PTB RRM1 L151G (human, UniProt P26599-1 41-163, L151G); assay: NMR; alpha3 does not fold; ITC (30 C) and NMR (40 C): 20 mM NaCl, 10 mM NaH2PO4 pH 6.5. EMSA: 20 mM NaH2PO4 pH 7.2, 100 mM NaCl, 5 mM MgCl2, 5% glycerol, 1 mM DTT, 50 ug/ml yeast tRNA, 40 ug/ml BSA, room temperature; settings: protein: recombinant; tags: intein tag removed; label: 13C/15N in some NMR samples; hairpin, 5-nt loop UCUUU (positions 10-14)
PTB RRM1 N143G/R146G = PTB RRM1 N143G/R146G (human, UniProt P26599-1 41-163, N143G;R146G); assay: ITC; Kd1; up to 3-fold; ITC (30 C) and NMR (40 C): 20 mM NaCl, 10 mM NaH2PO4 pH 6.5. EMSA: 20 mM NaH2PO4 pH 7.2, 100 mM NaCl, 5 mM MgCl2, 5% glycerol, 1 mM DTT, 50 ug/ml yeast tRNA, 40 ug/ml BSA, room temperature; settings: protein: recombinant; tags: intein tag removed; label: 13C/15N in some NMR samples; hairpin, 5-nt loop UCUUU (positions 10-14)
PTB RRM1 K94A = PTB RRM1 K94A (human, UniProt P26599-1 41-163, K94A); assay: ITC; Kd1; almost 7-fold; ITC (30 C) and NMR (40 C): 20 mM NaCl, 10 mM NaH2PO4 pH 6.5. EMSA: 20 mM NaH2PO4 pH 7.2, 100 mM NaCl, 5 mM MgCl2, 5% glycerol, 1 mM DTT, 50 ug/ml yeast tRNA, 40 ug/ml BSA, room temperature; settings: protein: recombinant; tags: intein tag removed; label: 13C/15N in some NMR samples; hairpin, 5-nt loop UCUUU (positions 10-14)
PTB RRM1 WT [1] = biological target: T1, PTB RRM1 WT (human, UniProt P26599-1 41-163); assay: ITC; Kd1, two independent site model, 30 C; ITC (30 C) and NMR (40 C): 20 mM NaCl, 10 mM NaH2PO4 pH 6.5. EMSA: 20 mM NaH2PO4 pH 7.2, 100 mM NaCl, 5 mM MgCl2, 5% glycerol, 1 mM DTT, 50 ug/ml yeast tRNA, 40 ug/ml BSA, room temperature; settings: protein: recombinant; label: 13C/15N in some NMR samples; hairpin, 5-nt loop UCUUU (positions 10-14)
PTB RRM1 WT [2] = biological target: T1, PTB RRM1 WT; assay: NMR; docked alpha3 79%; ITC (30 C) and NMR (40 C): 20 mM NaCl, 10 mM NaH2PO4 pH 6.5. EMSA: 20 mM NaH2PO4 pH 7.2, 100 mM NaCl, 5 mM MgCl2, 5% glycerol, 1 mM DTT, 50 ug/ml yeast tRNA, 40 ug/ml BSA, room temperature; settings: protein: recombinant; hairpin, loop GCUUU
PTB RRM1 WT [3] = biological target: T1, PTB RRM1 WT; assay: NMR; docked alpha3 78%; ITC (30 C) and NMR (40 C): 20 mM NaCl, 10 mM NaH2PO4 pH 6.5. EMSA: 20 mM NaH2PO4 pH 7.2, 100 mM NaCl, 5 mM MgCl2, 5% glycerol, 1 mM DTT, 50 ug/ml yeast tRNA, 40 ug/ml BSA, room temperature; settings: protein: recombinant; hairpin, loop UCUU
PTB RRM1 WT [4] = biological target: T1, PTB RRM1 WT; assay: NMR; docked alpha3 66%; ITC (30 C) and NMR (40 C): 20 mM NaCl, 10 mM NaH2PO4 pH 6.5. EMSA: 20 mM NaH2PO4 pH 7.2, 100 mM NaCl, 5 mM MgCl2, 5% glycerol, 1 mM DTT, 50 ug/ml yeast tRNA, 40 ug/ml BSA, room temperature; settings: protein: recombinant; hairpin, loop UCUGU
PTB RRM1 WT [5] = biological target: T1, PTB RRM1 WT; assay: NMR; docked alpha3 55%; ITC (30 C) and NMR (40 C): 20 mM NaCl, 10 mM NaH2PO4 pH 6.5. EMSA: 20 mM NaH2PO4 pH 7.2, 100 mM NaCl, 5 mM MgCl2, 5% glycerol, 1 mM DTT, 50 ug/ml yeast tRNA, 40 ug/ml BSA, room temperature; settings: protein: recombinant; hairpin, loop UCGUU
PTB RRM1 WT [6] = biological target: T1, PTB RRM1 WT; assay: NMR; docked alpha3 49%; ITC (30 C) and NMR (40 C): 20 mM NaCl, 10 mM NaH2PO4 pH 6.5. EMSA: 20 mM NaH2PO4 pH 7.2, 100 mM NaCl, 5 mM MgCl2, 5% glycerol, 1 mM DTT, 50 ug/ml yeast tRNA, 40 ug/ml BSA, room temperature; settings: protein: recombinant; hairpin, UUCG tetraloop
PTB RRM1 WT [7] = biological target: T1, PTB RRM1 WT; assay: NMR; 45 C; modest shift changes; ITC (30 C) and NMR (40 C): 20 mM NaCl, 10 mM NaH2PO4 pH 6.5. EMSA: 20 mM NaH2PO4 pH 7.2, 100 mM NaCl, 5 mM MgCl2, 5% glycerol, 1 mM DTT, 50 ug/ml yeast tRNA, 40 ug/ml BSA, room temperature; settings: protein: recombinant; single strand
PTB RRM1 WT [8] = biological target: T1, PTB RRM1 WT; assay: NMR; alpha3 formed as with SL UCUUU; ITC (30 C) and NMR (40 C): 20 mM NaCl, 10 mM NaH2PO4 pH 6.5. EMSA: 20 mM NaH2PO4 pH 7.2, 100 mM NaCl, 5 mM MgCl2, 5% glycerol, 1 mM DTT, 50 ug/ml yeast tRNA, 40 ug/ml BSA, room temperature; settings: protein: recombinant; hairpin, 9-nt loop with UUCUU at its 5' end

T1 sequence (P26599 41-163): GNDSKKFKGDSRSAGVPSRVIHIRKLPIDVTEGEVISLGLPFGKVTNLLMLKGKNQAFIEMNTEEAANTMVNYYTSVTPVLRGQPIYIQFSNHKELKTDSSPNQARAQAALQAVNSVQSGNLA
PTB RRM1 N143G/R146G, sequence (P26599 41-163 N143G/R146G): as the sequence (P26599 41-163) above, with N103G, R106G counted along it
PTB RRM1 K94A, sequence (P26599 41-163 K94A): as the sequence (P26599 41-163) above, with K54A counted along it
PTB RRM1 L151G, sequence (P26599 41-163 L151G): as the sequence (P26599 41-163) above, with L111G counted along it
PTB RRM1 P142G, sequence (P26599 41-163 P142G): as the sequence (P26599 41-163) above, with P102G counted along it

GGGACCUGGUCUUUCCAGGUCCC (structured_RNA) [SL UCUUU]
binding result (PTB RRM1 P142G): binds
binding result (PTB RRM1 L151G): binds
binding signal (PTB RRM1 N143G/R146G): ~3 fold loss of affinity vs WT
binding signal (PTB RRM1 K94A): ~7 fold loss of affinity vs WT
Kd (PTB RRM1 WT [1]): 100 ± 20 nM

GGGACCUGGGCUUUCCAGGUCCC (structured_RNA) [SL GCUUU]
binding result (PTB RRM1 WT [2]): binds

GGGACCUGGUCUUCCAGGUCCC (structured_RNA) [SL UCUU_]
binding result (PTB RRM1 WT [3]): binds

GGGACCUGGUCUGUCCAGGUCCC (structured_RNA) [SL UCUGU]
binding result (PTB RRM1 WT [4]): binds

GGGACCUGGUCGUUCCAGGUCCC (structured_RNA) [SL UCGUU]
binding result (PTB RRM1 WT [5]): binds

GGGACCUGGUUCGCCAGGUCCC (structured_RNA) [SL UUCG]
binding result (PTB RRM1 WT [6]): binds

CUCUCU (ssRNA) [CUCUCU ssRNA]
binding result (PTB RRM1 WT [7]): binds

GAUGGAUUCUUAUGCUCCAUC (structured_RNA) [hsa-mir-136 stem-loop]
binding result (PTB RRM1 WT [8]): binds
